Measurements published in patent publication US20170283495A1 (published 2017).

Experiments:
K18-biotin hepcidin-25 = target: T1, K18-biotin hepcidin-25 (biotin on K18); assay: Biacore (SPR); 5 µg/ml 583
T1 peptide: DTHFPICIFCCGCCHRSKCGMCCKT

NT-biotin hepcidin-25 = target: T2, NT-biotin hepcidin-25 (NT-biotin (biotin label; NT is not spelled out, taken as the N-terminus)); assay: Biacore (SPR); 5 µg/ml 583
T2 peptide: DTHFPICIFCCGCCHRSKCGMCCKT

B1: murine anti-hepcidin MAb 583 (antibody, V domains shown)
VH: QIQLVQSGPELKKPGETVKISCKASGYTFTNYGMNWVKQAPGKGLKWMGWINTYTGEPTYADDFKGRFAFSLETSASTAYLQINNLKNEDTATYFCTTYATSWYWGQGTTLTVSS
VL: DIVLTQSPASLAVSLGQRATISCRASESVDSYGNSFMHWYQQKPGQPPKLLIYRASNLESGIPARFSGSGSRTDFTLTINPVEADDVATYYCQQSNEDLTFGGGTKLEIK
Binder B1 has a Ka (K18-biotin hepcidin-25) of 1.34e+11 M⁻¹ and a Ka (NT-biotin hepcidin-25) of 5.47e+10 M⁻¹.
